Source: IntAct's records for PubMed 22212508

Tests used:
hdgr2_mouse Hdgfl2 = hdgr2_mouse Hdgfl2 (UniProt Q3UMU9)

Measured: effect of a mutation on the interaction

Sequence of Hepatoma-derived growth factor (Mus musculus), P51859 S165A (P51859 whole entry S165A): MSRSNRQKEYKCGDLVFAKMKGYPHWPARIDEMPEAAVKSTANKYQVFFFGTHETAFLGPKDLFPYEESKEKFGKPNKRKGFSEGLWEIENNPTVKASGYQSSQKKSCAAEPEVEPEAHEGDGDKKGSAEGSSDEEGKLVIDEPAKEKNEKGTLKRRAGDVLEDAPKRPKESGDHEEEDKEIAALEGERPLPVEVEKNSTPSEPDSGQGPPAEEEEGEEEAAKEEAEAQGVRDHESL
Sequence of q3umu9-3, Q3UMU9-3 (Q3UMU9 other isoform, or with tags, fused parts or gaps): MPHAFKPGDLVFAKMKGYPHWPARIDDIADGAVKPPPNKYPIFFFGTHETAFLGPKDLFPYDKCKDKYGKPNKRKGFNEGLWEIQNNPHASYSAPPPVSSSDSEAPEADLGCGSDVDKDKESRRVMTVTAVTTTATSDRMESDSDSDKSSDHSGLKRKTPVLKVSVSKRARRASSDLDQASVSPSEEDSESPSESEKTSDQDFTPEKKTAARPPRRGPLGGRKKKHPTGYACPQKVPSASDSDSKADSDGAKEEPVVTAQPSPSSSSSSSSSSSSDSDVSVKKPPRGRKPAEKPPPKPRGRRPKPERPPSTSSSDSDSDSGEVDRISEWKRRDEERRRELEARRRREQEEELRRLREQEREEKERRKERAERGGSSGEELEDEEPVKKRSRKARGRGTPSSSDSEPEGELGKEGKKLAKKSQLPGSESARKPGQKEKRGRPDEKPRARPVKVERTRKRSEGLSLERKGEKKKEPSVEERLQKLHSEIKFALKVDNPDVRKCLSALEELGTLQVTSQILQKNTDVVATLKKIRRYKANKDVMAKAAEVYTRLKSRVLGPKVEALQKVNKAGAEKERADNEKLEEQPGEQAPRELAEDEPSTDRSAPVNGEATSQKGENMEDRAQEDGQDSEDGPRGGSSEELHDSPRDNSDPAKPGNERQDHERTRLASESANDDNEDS
Sequence of hdgr2_mouse Hdgfl2 (Q3UMU9 whole entry): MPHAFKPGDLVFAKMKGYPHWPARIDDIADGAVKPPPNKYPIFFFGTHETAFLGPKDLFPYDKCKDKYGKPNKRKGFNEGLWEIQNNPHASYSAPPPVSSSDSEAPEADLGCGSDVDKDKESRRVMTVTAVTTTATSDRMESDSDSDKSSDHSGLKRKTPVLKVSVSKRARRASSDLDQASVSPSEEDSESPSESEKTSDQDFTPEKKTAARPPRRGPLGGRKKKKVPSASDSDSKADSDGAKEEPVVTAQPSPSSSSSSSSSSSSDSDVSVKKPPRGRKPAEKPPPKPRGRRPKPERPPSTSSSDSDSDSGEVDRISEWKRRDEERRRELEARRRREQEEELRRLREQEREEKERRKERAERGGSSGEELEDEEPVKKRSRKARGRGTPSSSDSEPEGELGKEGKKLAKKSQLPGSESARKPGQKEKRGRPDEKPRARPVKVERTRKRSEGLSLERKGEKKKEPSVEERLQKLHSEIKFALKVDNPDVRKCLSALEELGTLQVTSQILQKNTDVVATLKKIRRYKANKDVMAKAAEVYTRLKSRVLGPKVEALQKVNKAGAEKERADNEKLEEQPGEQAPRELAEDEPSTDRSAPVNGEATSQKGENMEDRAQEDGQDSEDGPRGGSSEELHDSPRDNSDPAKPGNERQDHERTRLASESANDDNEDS
Sequence of q3umu9-1, Q3UMU9-1 (Q3UMU9 whole entry): as above

Hepatoma-derived growth factor (Mus musculus), P51859 S165A
increasing interaction: q3umu9-1, Q3UMU9-1 | hdgr2_mouse Hdgfl2 | q3umu9-3, Q3UMU9-3
